Reference: article PMC11642874 (bioRxiv, 2024)
Blank lines part the entries; values can stand above or below the binder they belong to.

Assays:
[1] = biological target: T1, POLRMT-LSPDNA(−42to+9)-TFAM (P-D-T) complex (human, UniProt O00411 43-1230; Q00059 43-245); assay: fluorescence polarisation
[2] = biological target: POLRMT Δ42;TFAM Δ42;TFB2M Δ59 (human;human;human, UniProt O00411;Q00059;Q9H5Q4 43-1230;43-246;60-396, ||); assay: SEC and DLS
[3] = biological target: POLRMT Δ42;TFB2M Δ59 (human;human, UniProt O00411;Q9H5Q4 43-1230;60-396, |); assay: cryo-EM structure 3.15 A
Chain of POLRMT Δ42;TFB2M Δ59 (O00411 43-1230, stated change not applied, one chain of several): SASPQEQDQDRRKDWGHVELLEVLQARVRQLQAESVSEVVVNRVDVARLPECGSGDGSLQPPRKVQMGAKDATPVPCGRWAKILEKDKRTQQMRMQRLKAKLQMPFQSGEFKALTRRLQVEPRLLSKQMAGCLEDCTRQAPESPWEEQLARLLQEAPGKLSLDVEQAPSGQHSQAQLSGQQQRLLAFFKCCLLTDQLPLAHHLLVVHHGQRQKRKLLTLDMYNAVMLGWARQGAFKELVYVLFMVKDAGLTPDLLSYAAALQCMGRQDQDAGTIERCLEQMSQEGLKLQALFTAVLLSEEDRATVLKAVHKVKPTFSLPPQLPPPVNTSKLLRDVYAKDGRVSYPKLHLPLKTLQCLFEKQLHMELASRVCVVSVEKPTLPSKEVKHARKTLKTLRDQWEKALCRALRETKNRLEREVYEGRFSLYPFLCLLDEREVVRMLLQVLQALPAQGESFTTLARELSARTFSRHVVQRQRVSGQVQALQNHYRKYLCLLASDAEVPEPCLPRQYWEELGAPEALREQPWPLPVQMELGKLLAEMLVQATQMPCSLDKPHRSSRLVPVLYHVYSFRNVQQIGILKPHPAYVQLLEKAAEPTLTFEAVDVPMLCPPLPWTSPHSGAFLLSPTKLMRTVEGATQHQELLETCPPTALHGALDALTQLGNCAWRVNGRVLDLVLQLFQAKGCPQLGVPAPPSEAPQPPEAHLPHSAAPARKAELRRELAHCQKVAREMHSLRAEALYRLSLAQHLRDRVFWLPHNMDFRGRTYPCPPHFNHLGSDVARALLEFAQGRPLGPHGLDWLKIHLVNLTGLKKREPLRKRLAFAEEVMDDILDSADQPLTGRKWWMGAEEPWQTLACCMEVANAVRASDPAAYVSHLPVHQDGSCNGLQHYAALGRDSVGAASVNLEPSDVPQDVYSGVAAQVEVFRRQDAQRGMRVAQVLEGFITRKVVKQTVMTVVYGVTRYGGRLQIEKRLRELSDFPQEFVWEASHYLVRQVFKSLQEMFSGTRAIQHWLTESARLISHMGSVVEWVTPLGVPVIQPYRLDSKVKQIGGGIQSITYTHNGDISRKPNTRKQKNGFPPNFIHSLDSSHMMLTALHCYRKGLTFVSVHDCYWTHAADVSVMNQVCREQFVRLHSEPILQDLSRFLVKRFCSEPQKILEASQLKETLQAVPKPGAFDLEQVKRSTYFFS

[4] = biological target: Human mitochondrial RNA polymerase (POLRMT) Δ42 (human, UniProt O00411 43-1230); assay: cryo-EM structure
Chain of Human mitochondrial RNA polymerase (POLRMT) Δ42 (O00411 43-1230, stated change not applied): as the sequence (O00411 43-1230, stated change not applied, one chain of several) above

[5] = biological target: T1, POLRMT-LSPDNA(−42to+9)-TFAM (P-D-T) …; assay: fluorescence polarisation; remark: listed apart in the source
[6] = biological target: POLRMT Δ42;TFAM Δ42;TFB2M Δ41, Alexa488 (human;human;human, UniProt O00411;Q00059;Q9H5Q4 43-1230;43-246;42-396, ||); assay: fluorescence polarization
Chain of POLRMT Δ42;TFAM Δ42;TFB2M Δ41, Alexa488 (O00411 43-1230, stated change not applied, one chain of several): as above

T1 sequence (O00411 43-1230, one chain of several): as the sequence (O00411 43-1230, stated change not applied, one chain of several) above
Chain of POLRMT Δ42;TFAM Δ42;TFB2M Δ59 (O00411 43-1230, stated change not applied, one chain of several): as above

B2: LSP -43 to +13, -4 to +1 bubble (56 bp) (dsDNA)
DNA 1: ATGTGTTAGTTGGGGGGTGACTGTTAAAAGTGCATACCGAACAAAGATAAAATTTG
DNA 2: CAAATTTTATCTCCAGGCGGTATGCACTTTTAACAGTCACCCCCCAACTAACACAT
binding result [2]: binds

B3: LSP bubble with pppGpGpA RNA (slipped IC3) (mixed)
DNA 1: ATGTGTTAGTTGGGGGGTGACTGTTAAAAGTGCATACCGAACAAAGATAAAATTTG
DNA 2: CAAATTTTATCTCCAGGCGGTATGCACTTTTAACAGTCACCCCCCAACTAACACAT
?: GGA
modifications: RNA 5' triphosphate
binding result [3]: binds

B7: LSP -42 to +9 duplex (dsDNA)
DNA 1: TGTGTTAGTTGGGGGGTGACTGTTAAAAGTGCATACCGCCAAAAGATAAAA
DNA 2: TTTTATCTTTTGGCGGTATGCACTTTTAACAGTCACCCCCCAACTAACACA
Kd [6]: 6.1 nM

B8: Human transcription factor 2 (TFB2M) Y209A (natural protein, UniProt Q9H5Q4 21-396, looked up)
chain: GRFCILGSEAATRKHLPARNHCGLSDSSPQLWPEPDFRNPPRKASKASLDFKRYVTDRRLAETLAQIYLGKPSRPPHLLLECNPGPGILTQALLEAGAKVVALESDKTFIPHLESLGKNLDGKLRVIHCDFFKLDPRSGGVIKPPAMSSRGLFKNLGIEAVPWTADIPLKVVGMFPSRGEKRALWKLAADLYSCTSIYKFGRIEVNMFIGEKEFQKLMADPGNPDLYHVLSVIWQLACEIKVLHMEPWSSFDIYTRKGPLENPKRRELLDQLQQKLYLIQMIPRQNLFTKNLTPMNYNIFFHLLKHCFGRRSATVIDHLRSLTPLDARDILMQIGKQEDEKVVNMHPQDFKTLFETIERSKDCAYKWLYDETLEDR
binding result [5]: binds

More lines, now with the values ahead:

Kd [1]: 6.1 nM
B1: Alexa488-Δ41 TFB2M (natural protein, human, UniProt Q9H5Q4 42-396, looked up)
chain: CGLSDSSPQLWPEPDFRNPPRKASKASLDFKRYVTDRRLAETLAQIYLGKPSRPPHLLLECNPGPGILTQALLEAGAKVVALESDKTFIPHLESLGKNLDGKLRVIHCDFFKLDPRSGGVIKPPAMSSRGLFKNLGIEAVPWTADIPLKVVGMFPSRGEKRALWKLAYDLYSCTSIYKFGRIEVNMFIGEKEFQKLMADPGNPDLYHVLSVIWQLACEIKVLHMEPWSSFDIYTRKGPLENPKRRELLDQLQQKLYLIQMIPRQNLFTKNLTPMNYNIFFHLLKHCFGRRSATVIDHLRSLTPLDARDILMQIGKQEDEKVVNMHPQDFKTLFETIERSKDCAYKWLYDETLEDR
modifications: Alexa Fluor 488 C5 maleimide label (labelling efficiency ~76%)

binding result [4]: binds
B4: Human transcription factor 2 (TFB2M) Δ59 (natural protein, UniProt Q9H5Q4 60-396, looked up)
chain: PPRKASKASLDFKRYVTDRRLAETLAQIYLGKPSRPPHLLLECNPGPGILTQALLEAGAKVVALESDKTFIPHLESLGKNLDGKLRVIHCDFFKLDPRSGGVIKPPAMSSRGLFKNLGIEAVPWTADIPLKVVGMFPSRGEKRALWKLAYDLYSCTSIYKFGRIEVNMFIGEKEFQKLMADPGNPDLYHVLSVIWQLACEIKVLHMEPWSSFDIYTRKGPLENPKRRELLDQLQQKLYLIQMIPRQNLFTKNLTPMNYNIFFHLLKHCFGRRSATVIDHLRSLTPLDARDILMQIGKQEDEKVVNMHPQDFKTLFETIERSKDCAYKWLYDETLEDR

binding result [5]: binds
B5: Human transcription factor 2 (TFB2M) SGG-AAA (natural protein, UniProt Q9H5Q4 60-396, looked up)
chain: PPRKASKASLDFKRYVTDRRLAETLAQIYLGKPSRPPHLLLECNPGPGILTQALLEAGAKVVALESDKTFIPHLESLGKNLDGKLRVIHCDFFKLDPRAAAVIKPPAMSSRGLFKNLGIEAVPWTADIPLKVVGMFPSRGEKRALWKLAYDLYSCTSIYKFGRIEVNMFIGEKEFQKLMADPGNPDLYHVLSVIWQLACEIKVLHMEPWSSFDIYTRKGPLENPKRRELLDQLQQKLYLIQMIPRQNLFTKNLTPMNYNIFFHLLKHCFGRRSATVIDHLRSLTPLDARDILMQIGKQEDEKVVNMHPQDFKTLFETIERSKDCAYKWLYDETLEDR

binding result [4]: binds
B6: Human mitochondrial transcription factor A (TFAM) Δ42 (natural protein, UniProt Q00059 43-245, looked up)
chain: SSVLASCPKKPVSSYLRFSKEQLPIFKAQNPDAKTTELIRRIAQRWRELPDSKKKIYQDAYRAEWQVYKEEISRFKEQLTPSQIMSLEKEIMDKHLKRKAMTKKKELTLLGKPKRPRSAYNVYVAERFQEAKGDSPQEKLKTVKENWKNLSDSEKELYIQHAKEDETRYHNEMKSWEEQMIEVGRKDLLRRTIKKQRKYGAEE

binding result [5]: binds
B9: Human transcription factor 2 (TFB2M) (GS)3-loop (natural protein, UniProt Q9H5Q4 21-396, looked up)
chain: GRFCILGSEAATRKHLPARNHCGLSDSSPQLWPEPDFRNPPRKASKASLDFKRYVTDRRLAETLAQIYLGKPSRPPHLLLECNPGPGILTQALLEAGAKVVALESDKTFIPHLESLGKNLDGKLRVIHCDFFKLDPGSGSGSGPPAMSSRGLFKNLGIEAVPWTADIPLKVVGMFPSRGEKRALWKLAYDLYSCTSIYKFGRIEVNMFIGEKEFQKLMADPGNPDLYHVLSVIWQLACEIKVLHMEPWSSFDIYTRKGPLENPKRRELLDQLQQKLYLIQMIPRQNLFTKNLTPMNYNIFFHLLKHCFGRRSATVIDHLRSLTPLDARDILMQIGKQEDEKVVNMHPQDFKTLFETIERSKDCAYKWLYDETLEDR
